Assay results: patent publication US20230048633A1 (SHATTUCK LABS, published 2023)

T1: recombinant mouse 4-1 BB Ligand protein (R&D Systems, Cat. No. 1246-4L) (mouse, UniProt P41274 104-309)
T1 construct: Bought reagent; also called commercially available recombinant mouse 4-1 BB Ligand protein
T1 sequence (looked up): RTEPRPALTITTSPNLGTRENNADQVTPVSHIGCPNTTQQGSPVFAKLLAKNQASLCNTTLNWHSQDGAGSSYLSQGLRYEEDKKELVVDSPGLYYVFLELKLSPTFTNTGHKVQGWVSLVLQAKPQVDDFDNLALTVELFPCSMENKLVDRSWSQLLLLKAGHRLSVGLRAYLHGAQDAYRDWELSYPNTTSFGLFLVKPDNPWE

T2: m4-1BB expressed on CHO-K1 cells (CHO-K1/m4-1BB+ (C20)) (mouse, UniProt P20334 24-256)
T2 construct: whole, on cells; also called CHO-K1/4-1BB cells; 4-1BB expressed by the CHO-K1/4-1BB cells
T2 sequence (looked up): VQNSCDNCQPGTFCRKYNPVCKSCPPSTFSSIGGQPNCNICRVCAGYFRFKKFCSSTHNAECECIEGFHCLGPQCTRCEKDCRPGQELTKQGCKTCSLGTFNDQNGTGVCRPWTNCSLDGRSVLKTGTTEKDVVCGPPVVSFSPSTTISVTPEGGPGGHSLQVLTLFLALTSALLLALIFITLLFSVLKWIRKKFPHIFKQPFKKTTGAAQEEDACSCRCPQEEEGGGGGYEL

B1: hTGFBR2-Fc-NKG2A chimeric protein (Fc fusion)
chain: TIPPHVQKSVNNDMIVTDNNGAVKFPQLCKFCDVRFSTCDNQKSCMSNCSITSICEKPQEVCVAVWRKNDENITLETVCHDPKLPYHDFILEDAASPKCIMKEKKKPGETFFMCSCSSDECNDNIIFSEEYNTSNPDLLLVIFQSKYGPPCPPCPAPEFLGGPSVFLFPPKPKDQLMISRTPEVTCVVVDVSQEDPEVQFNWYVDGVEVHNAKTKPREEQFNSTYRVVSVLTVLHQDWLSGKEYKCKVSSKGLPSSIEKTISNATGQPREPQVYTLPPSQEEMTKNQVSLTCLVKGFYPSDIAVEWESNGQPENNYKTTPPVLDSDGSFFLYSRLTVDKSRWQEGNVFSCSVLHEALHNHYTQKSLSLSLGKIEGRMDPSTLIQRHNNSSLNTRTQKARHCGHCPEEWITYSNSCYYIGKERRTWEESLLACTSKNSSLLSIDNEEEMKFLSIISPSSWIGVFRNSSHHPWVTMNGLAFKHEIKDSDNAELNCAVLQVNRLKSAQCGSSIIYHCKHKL
notes: also called human TGFBR2-Fc-NKG2A
B2: recombinant 4-1BB-His protein (receptor, mouse, UniProt P20334 24-187, looked up)
chain: VQNSCDNCQPGTFCRKYNPVCKSCPPSTFSSIGGQPNCNICRVCAGYFRFKKFCSSTHNAECECIEGFHCLGPQCTRCEKDCRPGQELTKQGCKTCSLGTFNDQNGTGVCRPWTNCSLDGRSVLKTGTTEKDVVCGPPVVSFSPSTTISVTPEGGPGGHSLQVL
notes: also called m4-1BB-His; CD137; not shown: His tag
B3: mTGFBR2-Fc-4-1BBL chimeric protein (Fc fusion, mouse, UniProt Q62312 24-166, looked up)
chain: IPPHVPKSVNSDVMASDNGGAVKLPQLCKFCDVRLSTCDNQKSCMSNCSITAICEKPHEVCVAVWRKNDKNITLETVCHDPKLTYHGFTLEDAASPKCVMKEKKRAGETFFMCACNMEECNDYIIFSEEYTTSSPDLLLVIIQVPRDCGCKPCICTVPEVSSVFIFPPKPKDVLTITLTPKVTCVVVDISKDDPEVQFSWFVDDVEVHTAQTQPREEQFNSTFRSVSELPIMHQDWLNGKEFKCRVNSAAFPAPIEKTISKTKGRPKAPQVYTIPPPKEQMAKDKVSLTCMITDFFPEDITVEWQWNGQPAENYKNTQPIMNTNGSYFVYSKLNVQKSNWEAGNTFTCSVLHEGLHNHHTEKSLSHSPGKRTEPRPALTITTSPNLGTRENNADQVTPVSHIGCPNTTQQGSPVFAKLLAKNQASLCNTTLNWHSQDGAGSSYLSQGLRYEEDKKELVVDSPGLYYVFLELKLSPTFTNTGHKVQGWVSLVLQAKPQVDDFDNLALTVELFPCSMENKLVDRSWSQLLLLKAGHRLSVGLRAYLHGAQDAYRDWELSYPNTTSFGLFLVKPDNPWE
notes: extracellular domain;domain: hinge-CH2-CH3 Fc domain; also called murine TGFBR2-Fc-4-1BBL; TGFBR2-Fc-CD137L

What was measured:
anti-human IgG antibody = molecular target: T3, anti-human IgG antibody; experiment: ELISA: plate coated with Anti-Human IgG (H+L) Jax# 109-005-088, titrated protein captured, detected with HRP Goat anti-human FCgamma Jax# 109-035-008
T3 construct: also called anti-human Fc antibody
Procedure: To understand whether the human Fc linkers from the native chimeric proteins can be accessed by anti-human antibodies, ELISA-based assays were performed. For these assays, an anti-human IgG antibody was coated on plates and increasing amounts of the hCD86-Fc-NKG2A, hTGFBR2-Fc-NKG2A, and mCD80-Fc-NKG2a chimeric proteins, and a human IgG antibody were added to the plates for capture by the plate-bound anti-human antibody. The human IgG antibody and the hCD86-Fc-NKG2A chimeric protein were used as a positive control. The mCD80-Fc-NKG2a chimeric protein was included as a negative control as containing a non-human Fc domain. The protein bound to the anti-human IgG antibody was detected using an anti-human Fcgamma HRP.

[1] = molecular target: T1, recombinant mouse 4-1 BB Ligand protein …; experiment: Octet (4-1BB Arc Octet): 41BB His (5ug/ml, Acro 41B-M52H7) on the tip, All Molecules at 30ug/ml; rm41BBL R&D 1246-4L
Procedure: To study the binding kinetics of type II transmembrane protein domain and TGFBR2 parts of the illustrative TGFBR2-based chimeric proteins, binding assays were performed using the Octet system (ForteBio). Binding of the TGFBR2-Fc-4-1BBL chimeric protein to recombinant 4-1BB was analyzed. Briefly, recombinant 4-1BB-His protein was immobilized and detected using the mTGFBR2-Fc-4-1BBL chimeric protein, a positive control protein comprising Fc-4-1BBL (Control-Fc-4-1BBL) or commercially available recombinant mouse 4-1 BB Ligand protein (R&D Systems, Cat. No. 1246-4L). The binding response of the mTGFBR2-Fc-4-1BBL chimeric protein to 4-1BB-His protein was measured and plotted in real time on a sensorgram trace.

[2] = molecular target: B2; experiment: ELISA: plate coated with 41BB-His (5ug/ml, Acro 41B-M52H7), titrated protein captured, detected with α-mFc-HRP (1:10k, Jax 115-036-003)
Procedure: The TGFBR2-based chimeric proteins harbor type II transmembrane protein domains at or near the C-terminus. To understand whether the type II transmembrane protein domains from the native chimeric proteins can bind their natural ligands/receptors, ELISA-based assays were performed. TGFBR2-Fc-4-1BBL comprises 4-1BB ligand (4-1BBL or TNFSF9) as the type II membrane protein located at or near the C-terminus. 4-1BB (CD137, TNFRSF9) is the natural receptor/ligand of 4-1BBL. To understand whether the type II transmembrane protein domain part of the native TGFBR2-Fc-4-1BBL chimeric protein can bind 4-1BB, ELISA-based assays were performed. Recombinant 4-1BB-His protein was coated on plates. Increasing amounts of the TGFBR2-Fc-4-1BBL chimeric protein, or a positive control protein comprising Fc-4-1BBL (Control-Fc-4-1BBL) were added for capture by the plate-bound 4-1BB-His protein. Binding was detected using an anti mFc-HRP antibody. […] Therefore, the type II transmembrane protein domain of the TGFBR2-Fc-4-1BBL and Control-Fc-4-1BBL chimeric proteins bind to the natural ligand/receptor of the 4-1BBL.

[3] = molecular target: T2, m4-1BB expressed on CHO-K1 cells …; experiment: flow cytometry on CHO-K1/m4-1BB+ (C20) cells, detected with Anti-mFc-APC (Jax 1:50)
Procedure: To understand whether the 4-1BBL part of the mTGFBR2-Fc-4-1BBL chimeric protein can specifically bind cells expressing 4-1BB, cells expressing 4-1 BB were generated. Specifically, the CHO-K1 cells expressing 4-1 BB were generated using standard techniques. Clone 20, a positive clone, called CHO-K1/m4-1BB+ (C20), was used for further studies. To determine whether the mTGFBR2-Fc-4-1BBL chimeric protein can specifically bind the CHO-K1/4-1BB cells, a flow-cytometry-based assay was carried out. CHO-K1/m4-1BB+(C20) and WT CHO-K1 cells were stained with increasing concentrations of the TGFBR2-Fc-4-1BBL chimeric protein, or positive control protein comprising Fc-4-1BBL (Control-Fc-4-1BBL) and analyzed by flow cytometry. Unstained CHO-K1/m4-1BB+ (C20) and WT CHO-K1 cells or CHO-K1/m4-1BB+ (C20) and WT CHO-K1 cells stained without the TGFBR2-Fc-4-1BBL chimeric protein, or positive control protein comprising Fc-4-1BBL (Control-Fc-4-1BBL) were used as control.

Binder: B1
EC50 (read off the curve) (anti-human IgG antibody): ~10 µg/mL

Binder: B2
binding result [1]: binds

Binder: B3
EC50 (read off the curve) [2]: ~0.07 µg/mL
EC50 (read off the curve) [3]: ~0.08 µg/mL
